Results reported in patent US9988424 (DUKE UNIVERSITY, dated 2018).

How the values were obtained:
Assay in all cases: ELISA, OD405
[1] = target: B.63521 gp140C
[2] = target: B.040 gp140C
[3] = target: T1, gp70 C.1086 V1/V2 (HIV-1 V1V2 on murine leukemia virus gp70)
T1 construct: also called C.gp70 1086C V1V2; C.1086gp70V1V2
T1 chain: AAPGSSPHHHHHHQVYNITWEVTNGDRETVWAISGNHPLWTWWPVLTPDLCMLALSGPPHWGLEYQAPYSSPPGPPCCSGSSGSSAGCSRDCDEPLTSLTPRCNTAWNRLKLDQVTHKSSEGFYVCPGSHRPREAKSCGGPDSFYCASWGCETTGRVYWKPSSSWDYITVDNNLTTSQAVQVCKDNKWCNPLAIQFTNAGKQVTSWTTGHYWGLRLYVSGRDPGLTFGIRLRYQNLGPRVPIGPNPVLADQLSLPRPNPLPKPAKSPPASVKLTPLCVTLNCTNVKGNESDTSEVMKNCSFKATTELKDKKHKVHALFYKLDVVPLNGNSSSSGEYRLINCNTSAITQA

[4] = target: T2, G.con gp140CF
T2 construct: also called G.con.env03 gp140CF

[5] = target: T3, C.1086 gp140
T3 construct: also called C.1086gp140C

[6] = target: T4, B.con gp140CF
T4 construct: also called B.con.env03 gp140CF

[7] = target: C.CAP206 gp140CF.12 (HIV-1)
[8] = target: B. 684-6 gp140C
[9] = target: T5, B.63521_V1V2 Tags
T5 Env construct: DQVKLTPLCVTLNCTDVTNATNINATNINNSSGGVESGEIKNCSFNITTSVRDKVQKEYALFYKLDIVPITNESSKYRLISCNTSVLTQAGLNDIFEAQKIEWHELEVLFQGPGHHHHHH

[10] = target: T6, A.9004SS V1V2 Tags
T6 Env construct: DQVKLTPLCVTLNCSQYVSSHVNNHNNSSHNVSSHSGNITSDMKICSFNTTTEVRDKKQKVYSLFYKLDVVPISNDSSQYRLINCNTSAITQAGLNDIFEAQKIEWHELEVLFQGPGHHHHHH

[11] = target: T7, B.HXB/BAL gp140CFI (HIV-1, UniProt P04578 33-680)
T7 construct: also called B.HxB/Ba gp140 CFI

[12] = target: T8, AE.con gp140CF
T8 construct: also called AE.con.env03 gp140CF

[13] = target: T9, B.Case A2 V1/V2 Tags
T9 Env construct: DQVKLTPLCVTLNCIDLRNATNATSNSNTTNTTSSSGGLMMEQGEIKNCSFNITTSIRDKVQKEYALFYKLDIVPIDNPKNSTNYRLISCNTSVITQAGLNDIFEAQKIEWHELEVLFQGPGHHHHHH

[14] = target: T10, D.9009SA V1V2 Tags
T10 Env construct: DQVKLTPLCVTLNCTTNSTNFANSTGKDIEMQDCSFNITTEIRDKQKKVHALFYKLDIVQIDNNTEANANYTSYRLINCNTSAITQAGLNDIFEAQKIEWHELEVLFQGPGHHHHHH

[15] = target: Con 6 gp120
[16] = target: T11, AE.97CNG2XF gp140CF (HIV-1)
T11 construct: also called E.97CNGX2F gp140CF

[17] = target: T12, B.62357 140C
T12 construct: also called B.62357 gp140C

[18] = target: B. 681-7 gp140C
[19] = target: T13, SIV CPZ US-1 gp140CF (SIVcpz)
T13 construct: also called US-1 SIVCPZ gp140CF
T13 chain: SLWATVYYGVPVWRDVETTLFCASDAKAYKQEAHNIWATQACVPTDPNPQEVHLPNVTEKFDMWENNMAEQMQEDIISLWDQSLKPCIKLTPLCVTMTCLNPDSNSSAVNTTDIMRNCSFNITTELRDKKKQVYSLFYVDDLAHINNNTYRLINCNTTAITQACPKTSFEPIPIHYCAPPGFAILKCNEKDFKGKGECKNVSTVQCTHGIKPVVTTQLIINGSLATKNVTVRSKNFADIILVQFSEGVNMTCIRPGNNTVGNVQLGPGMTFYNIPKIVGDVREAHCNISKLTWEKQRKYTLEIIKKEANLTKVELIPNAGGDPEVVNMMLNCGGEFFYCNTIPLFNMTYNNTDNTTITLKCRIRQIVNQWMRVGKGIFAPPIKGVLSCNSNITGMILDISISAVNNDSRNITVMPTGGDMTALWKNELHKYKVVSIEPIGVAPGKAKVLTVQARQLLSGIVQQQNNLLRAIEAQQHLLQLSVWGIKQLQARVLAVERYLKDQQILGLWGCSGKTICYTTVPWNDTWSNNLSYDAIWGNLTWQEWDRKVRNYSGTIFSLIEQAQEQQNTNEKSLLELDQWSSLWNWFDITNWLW

Measured: binding result

B1: CH01_RUA2 (antibody, V domains shown)
VH: EVQLVESGGGVVRPGGSLRLSCAASGFTFDDYGMSWVRQAPGKGLEWVSGINWNGGSTGYADSVKGRFTISRDNAKNSLYLQMNSLRAEDTALYYCARGTDYTIDDQGILYQGSGTFWYFDLWGRGTLVTVSS
VL: not shown
notes: also called CH01 UA 2; CH01_UA 2
no binding (tested: 10 ug/ml): all assays above
